Values quoted from earlier work, collected in paper PMC3045798.

Molecular target: Cys25 (UniProt position 158, GSCGSCWAFSA)

For “Papain (Carica papaya (not stated in the article))”, the pKa is given as “around 2.5 to 3.5”.
